The MegaScale stability set (Tsuboyama et al. 2023)

B1: HHH_rd2_0155 (parent)
chain: PPDDERKKAEKAARSGNEEKAREILERLGYSEDEARELAKRLR

Variants of: B1
Assay: folding stability dG (cDNA display proteolysis); higher = more stable
Settings: PBS, room temperature

Variant | folding stability dG
R14L | 1.79 kcal/mol
E18T | 1.8 kcal/mol
E34P | 0.438 kcal/mol
E23T | 1.69 kcal/mol
D4K | 1.95 kcal/mol
E26S | 1.72 kcal/mol
E18W | 2.32 kcal/mol
A39C | 2.23 kcal/mol
G29W | 0.361 kcal/mol
R27F | 1.39 kcal/mol
D3N | 1.98 kcal/mol
D4S | 2.16 kcal/mol
P1L | 2.24 kcal/mol
R36H | 1.17 kcal/mol
E5L | 2.65 kcal/mol
K7H | 1.85 kcal/mol
L28I | 1.7 kcal/mol
L25Q | 0.444 kcal/mol
K11F | 2.01 kcal/mol
R6V | 2.27 kcal/mol
P2I | 2.25 kcal/mol
R41V | 1.35 kcal/mol
Y30H | 1.13 kcal/mol
E10I | 2.4 kcal/mol

Variant | folding stability dG
E5F | 1.88 kcal/mol
P1K | 2.14 kcal/mol
E37S | 2.05 kcal/mol
L25G | 0.372 kcal/mol
D33Y | 1.91 kcal/mol
G29M | 0.484 kcal/mol
A13V | 1.19 kcal/mol
P1G | 2.26 kcal/mol
S31E | 1.03 kcal/mol
A39N | 0.26 kcal/mol
I24W | 1.38 kcal/mol
D3L | 2.06 kcal/mol
R27M | 1.7 kcal/mol
S15T | 1.8 kcal/mol
R36W | 1.68 kcal/mol
L28P | 0.261 kcal/mol
R36L | 1.51 kcal/mol
E5W | 2.35 kcal/mol
A12L | 2.38 kcal/mol
K7F | 1.89 kcal/mol
L42A | 1.2 kcal/mol
R43P | 0.532 kcal/mol
D4W | 2.09 kcal/mol
R36T | 1.31 kcal/mol

Variant | folding stability dG
R22K | 1.44 kcal/mol
L38Y | 1.67 kcal/mol
A9W | 1.53 kcal/mol
G29D | 0.445 kcal/mol
E23D | 1.54 kcal/mol
S15Q | 2.21 kcal/mol
E10L | 2.38 kcal/mol
L42P | 0.434 kcal/mol
E23Q | 2.18 kcal/mol
K8I | 1.84 kcal/mol
E19S | 1.9 kcal/mol
K40P | 0.1 kcal/mol
Y30A | 0.811 kcal/mol
Y30V | 0.808 kcal/mol
A21D | 0.869 kcal/mol
P2T | 2.02 kcal/mol
L25Y | 1.87 kcal/mol
K8V | 1.77 kcal/mol
K7C | 2.17 kcal/mol
E32G | 1.49 kcal/mol
S31G | 1.44 kcal/mol
K7Q | 2.18 kcal/mol
R22F | 1.09 kcal/mol
S31P | 1.46 kcal/mol

Variant | folding stability dG
G16M | 1.33 kcal/mol
K8P | 1.14 kcal/mol
Y30D | 0.243 kcal/mol
E26P | -0.06 kcal/mol
E18M | 2.61 kcal/mol
L38D | -0.841 kcal/mol
R43D | 0.613 kcal/mol
P1T | 2.36 kcal/mol
A12W | 2.4 kcal/mol
E34F | 1.39 kcal/mol
R6Q | 1.73 kcal/mol
E19R | 2.16 kcal/mol
R41M | 1.86 kcal/mol
R22E | 0.77 kcal/mol
E34H | 1.38 kcal/mol
E5P | 1.8 kcal/mol
E18N | 1.17 kcal/mol
I24Q | 0.718 kcal/mol
E5V | 1.61 kcal/mol
L38T | 1.09 kcal/mol
S15I | 1.57 kcal/mol
G16W | 1.42 kcal/mol
A9C | 1.45 kcal/mol
L28F | 1.2 kcal/mol

Variant | folding stability dG
L42C | 1.56 kcal/mol
E32C | 1.86 kcal/mol
A13K | 0.841 kcal/mol
A21C | 1.87 kcal/mol
E19M | 2.22 kcal/mol
P1F | 2.22 kcal/mol
R27D | 0.997 kcal/mol
G16I | 1.2 kcal/mol
R36V | 1.26 kcal/mol
E34W | 1.08 kcal/mol
S31I | 0.504 kcal/mol
R14K | 2.08 kcal/mol
S31A | 1.28 kcal/mol
G16K | 1.22 kcal/mol
A21N | 0.934 kcal/mol
N17V | 0.993 kcal/mol
E10K | 1.78 kcal/mol
R36I | 1.57 kcal/mol
A39P | -0.361 kcal/mol
E37H | 1.85 kcal/mol
K20D | 1.33 kcal/mol
E37F | 1.98 kcal/mol
E26D | 0.509 kcal/mol
A35G | 0.605 kcal/mol

Variant | folding stability dG
A39S | 1.02 kcal/mol
E23S | 1.73 kcal/mol
A39H | 0.706 kcal/mol
L25A | 0.215 kcal/mol
A12S | 1.34 kcal/mol
E37V | 2.03 kcal/mol
A21Q | 0.924 kcal/mol
L38V | 1.12 kcal/mol
R22L | 1.4 kcal/mol
N17E | 1.71 kcal/mol
G16D | 1.24 kcal/mol
E37D | 1.73 kcal/mol
S31Y | 0.287 kcal/mol
E5R | 1.66 kcal/mol
R27G | 1.89 kcal/mol
E37I | 2.21 kcal/mol
R14S | 1.44 kcal/mol
R22S | 1 kcal/mol
A12Q | 1.69 kcal/mol
N17R | 1.46 kcal/mol
P2G | 2.04 kcal/mol
P2S | 1.97 kcal/mol
Y30L | 1.79 kcal/mol
R6W | 3.4 kcal/mol

Variant | folding stability dG
K11R | 2.47 kcal/mol
P1A | 2.22 kcal/mol
K8H | 1.94 kcal/mol
E32F | 1.96 kcal/mol
K11I | 2.45 kcal/mol
R27L | 1.81 kcal/mol
E10H | 1.75 kcal/mol
R41W | 1.85 kcal/mol
R27S | 1.94 kcal/mol
L25I | 0.435 kcal/mol
A39E | 0.651 kcal/mol
E5Y | 1.81 kcal/mol
A35K | 0.591 kcal/mol
E18L | 2.8 kcal/mol
A9P | 1.13 kcal/mol
E10Y | 2.44 kcal/mol
D33M | 1.8 kcal/mol
R41L | 2.04 kcal/mol
I24L | 1.57 kcal/mol
G29P | -0.509 kcal/mol
E23C | 2.35 kcal/mol
E18Y | 2.25 kcal/mol
S15N | 2.09 kcal/mol
L28E | 0.577 kcal/mol

Variant | folding stability dG
R43L | 1.87 kcal/mol
E26F | 1.47 kcal/mol
E34R | 1.4 kcal/mol
D4P | 1.88 kcal/mol
P2V | 2.2 kcal/mol
K8M | 2.18 kcal/mol
R14V | 1.75 kcal/mol
S15P | 0.861 kcal/mol
D33W | 1.83 kcal/mol
P1D | 2.36 kcal/mol
E32L | 1.66 kcal/mol
E10W | 2.31 kcal/mol
E37T | 1.95 kcal/mol
G16V | 0.998 kcal/mol
D33H | 1.86 kcal/mol
G16Q | 1.04 kcal/mol
E23R | 2.21 kcal/mol
I24T | 0.469 kcal/mol
N17F | 1.9 kcal/mol
R22V | 2.21 kcal/mol
A13L | 1.54 kcal/mol
E5K | 1.45 kcal/mol
S15C | 2.15 kcal/mol
K8E | 2.26 kcal/mol

Variant | folding stability dG
E34K | 1.25 kcal/mol
R14G | 1.04 kcal/mol
E5I | 1.51 kcal/mol
Y30F | 1.94 kcal/mol
K20R | 1.89 kcal/mol
A9N | 0.839 kcal/mol
A39Y | 1.66 kcal/mol
E23H | 1.85 kcal/mol
A12T | 1.24 kcal/mol
A9I | 1.25 kcal/mol
S31T | 2.13 kcal/mol
D3Y | 1.93 kcal/mol
K7M | 2.21 kcal/mol
N17W | 1.98 kcal/mol
R41Q | 1.78 kcal/mol
R43H | 1.91 kcal/mol
A13E | 0.902 kcal/mol
Y30R | 0.36 kcal/mol
K8F | 1.75 kcal/mol
A35M | 1.02 kcal/mol
K8G | 1.36 kcal/mol
G16L | 1.54 kcal/mol
A13N | 0.717 kcal/mol
A35D | 0.38 kcal/mol

Variant | folding stability dG
A21P | 0.632 kcal/mol
R43K | 1.79 kcal/mol
E37A | 2.27 kcal/mol
D4Y | 1.93 kcal/mol
E10G | 1.58 kcal/mol
E10Q | 1.93 kcal/mol
A12H | 1.9 kcal/mol
L42T | 0.69 kcal/mol
E5N | 1.5 kcal/mol
K7Y | 1.91 kcal/mol
L38M | 2.09 kcal/mol
P2Y | 2.29 kcal/mol
L38H | 0.687 kcal/mol
K20S | 1.61 kcal/mol
L28R | 0.697 kcal/mol
A12N | 1.04 kcal/mol
L28D | 0.418 kcal/mol
K8A | 2.18 kcal/mol
S15L | 1.95 kcal/mol
R41G | 0.69 kcal/mol
D4F | 2.02 kcal/mol
K11Q | 2.36 kcal/mol
R14I | 1.84 kcal/mol
K8L | 2.22 kcal/mol

Variant | folding stability dG
K8Y | 1.62 kcal/mol
I24E | 0.689 kcal/mol
K11H | 2.32 kcal/mol
P2F | 2.35 kcal/mol
R41T | 1.37 kcal/mol
E26H | 1.82 kcal/mol
N17A | 1.4 kcal/mol
A39D | -0.2 kcal/mol
K11M | 2.48 kcal/mol
E5S | 1.8 kcal/mol
S31F | 0.694 kcal/mol
L28T | 0.615 kcal/mol
E18D | 1.53 kcal/mol
E5H | 1.5 kcal/mol
R14E | 1.32 kcal/mol
G29I | 0.244 kcal/mol
D33P | 1.55 kcal/mol
A35H | 0.728 kcal/mol
K20G | 1.66 kcal/mol
K20H | 1.73 kcal/mol
A9H | 1.18 kcal/mol
K20N | 1.21 kcal/mol
D4I | 2.17 kcal/mol
G29H | 0.665 kcal/mol

Variant | folding stability dG
E23K | 2.12 kcal/mol
S15F | 1.65 kcal/mol
K20M | 2.19 kcal/mol
G29Y | 0.196 kcal/mol
E5T | 1.73 kcal/mol
S31L | 0.779 kcal/mol
A12R | 1.18 kcal/mol
D33I | 1.87 kcal/mol
A9M | 1.05 kcal/mol
E32M | 1.78 kcal/mol
E10F | 2.16 kcal/mol
R36M | 1.57 kcal/mol
I24S | 0.659 kcal/mol
A39Q | 0.366 kcal/mol
E23A | 2.06 kcal/mol
I24A | 0.975 kcal/mol
L42I | 1.57 kcal/mol
E32D | 1.4 kcal/mol
K40N | 1.79 kcal/mol
P2K | 2.11 kcal/mol
P2R | 2.17 kcal/mol
E23F | 1.61 kcal/mol
E18Q | 1.5 kcal/mol
K11G | 1.39 kcal/mol

Variant | folding stability dG
D3S | 2.08 kcal/mol
L28N | 0.822 kcal/mol
S31M | 1.03 kcal/mol
A13I | 1.46 kcal/mol
A13G | 1.07 kcal/mol
K8R | 2.15 kcal/mol
L25N | 0.253 kcal/mol
R14N | 1.3 kcal/mol
K7D | 1.7 kcal/mol
E18P | 1.23 kcal/mol
A39K | 0.184 kcal/mol
K40R | 2.52 kcal/mol
A35L | 1.02 kcal/mol
A9S | 1.02 kcal/mol
R36F | 1.56 kcal/mol
E19C | 2.27 kcal/mol
R14P | 0.9 kcal/mol
K40V | 1.43 kcal/mol
G16T | 0.813 kcal/mol
E37W | 2.41 kcal/mol
E23L | 2.19 kcal/mol
I24D | 0.375 kcal/mol
S31V | 0.347 kcal/mol
P2E | 2.24 kcal/mol

Variant | folding stability dG
E26L | 2.56 kcal/mol
G29S | 0.474 kcal/mol
R36A | 1.56 kcal/mol
I24Y | 1.44 kcal/mol
E18K | 0.82 kcal/mol
E18G | 1.19 kcal/mol
S31Q | 1.2 kcal/mol
K40L | 1.81 kcal/mol
R36C | 0.956 kcal/mol
R41K | 1.98 kcal/mol
K8T | 1.81 kcal/mol
R6L | 3 kcal/mol
A21K | 0.641 kcal/mol
E10S | 1.66 kcal/mol
N17S | 1.4 kcal/mol
D33E | 2.19 kcal/mol
R6N | 1.17 kcal/mol
D3V | 1.85 kcal/mol
R27Y | 1.41 kcal/mol
K11N | 2.11 kcal/mol
E32T | 1.93 kcal/mol
G16H | 1.32 kcal/mol
